From PMC4833862

Molecular target: CthACC (full-length Chaetomium thermophilum acetyl-CoA carboxylase, 1-2,297) (Chaetomium thermophilum)
Experiment: SAXS; 30 mM MOPS pH 7, 200 mM ammonium sulfate, 5% glycerol, 10 mM dithiothreitol; 2.5, 5 and 10 mg/ml, extrapolated to zero concentration

stoichiometry N: 2
Substance: CthACC (full-length Chaetomium thermophilum acetyl-CoA carboxylase, 1-2,297) (enzyme)
